Twelve molecules from patent publication US8629241B2, “Alpha helical mimics, their uses and methods for their production” (The University of Queensland, priority 2004, dated 2014) can be followed below.

Read-outs that look alike come from different tables or passages of the source. Where a SMILES comes first, the peptide text is derived from it. Bridges are numbered along the chain shown (N, C = ends). [ ]: non-standard residue; d: D form. Orn = NCCC[C@H](N)C(=O)O

This series is classed as physicochemical. Conditions: for [θ]207: molar elipticity at 207 nm; for percentage helicities: equation 2b with k˜4, assuming 8 has 100% helicity. The protocol:
Circular Dichroism (CD) was performed on peptides having SEQ ID NOs: 8 to 14 and 18 to 31, using methods described above. The molar elipticities at 222 nm, 208 nm and 190 nm, ratios of elipticities at 222 nm/208 nm and relative helicity are shown in Tables 6 and 7.
Assuming that mean alpha helix content (fH) is linearly related to elipticity at 222 nm, or in our case 215 nm ([θ]obs215), then the equation for calculating helix content is: fH=([θ]obs215−[θ]C)/([θ]∞215−[θ]C) (1) Luo and Baldwin^22 determined that the random coil ([θ]C) and infinite alpha helix ([θ]∞222) molar elipticities are temperature dependent based on the equations: [θ]C=2220−53T (2a) [θ]∞215=(−44000+250T)(1−k/Np) (2b) where T is temperature in degrees Celsius, Np is the number of peptide units, and k is a finite length correction.
CD was performed on peptides having one [SEQ ID NO: 8] or more than one modular macrocycle [SEQ ID NOs: 46 and 47], as compared with corresponding linear peptides, Ac[KARAD]n—NH2 where n=1 [SEQ ID NO: 14], n=2 [SEQ ID NO: 54] and n=3 [SEQ ID NO: 55]. The molar elipticities at 222 nm, 208 nm and 190 nm, ratios of elipticities at 222 nm/208 nm and percentage helicity are shown in Table 8.
CD experiments were performed on a Jasco Model J-710 spectropolarimeter which was routinely calibrated with (1S)-(+)-10-camphorsulfonic acid. Temperature control was achieved using a Neslab RTE-111 circulating water bath. Spectra were recorded in a 0.1 cm Jasco cell between 310-185 nm at 50 nm/min with a band width of 1.0 nm, response time of 2 sec, resolution step width of 0.1 nm and sensitivity of 20, 50 or 100 mdeg. Each spectrum represents the average of 5 scans with smoothing to reduce noise. Peptide samples for CD spectroscopy were dissolved in distilled water (˜1 mg/mL). Each stock solution was diluted to a final concentration of 50 μM in 10 mM sodium phosphate buffer (pH7.4), with or without additives (2,2,2-trifluoroethanol (TFE) or guanidine.HCl). Guanidine.HCl denaturation experiments were performed according to Creighton^105.
1D ^1H NMR spectra were then recorded with presaturation and a relaxation delay (d1) of 30 seconds to allow for full relaxation of peptide and DSS^1H signals to facilitate accurate integration of proton signals with S/N>250:1. This method provides reproducible concentrations within ±2%.
CD data in ellipticity was converted to mean peptide ellipticity using the equation: [θ]=θ/(10×C×Np×1) where θ is the ellipticity in millidegrees, C is the peptide molar concentration (M), 1 is the cell path length (cm), and Np is the number of peptide units (ie. pentapeptides […], 10 & 11 Np=5, 12 Np=4.)
Relative helicities were employed to allow scaling of compounds by dividing the [θ]obs215(8)/[θ]obs215(x) for pentapeptides, and [θ]obs215(24)/[θ]obs215(x) for hexapeptides.

The mark [1] stands for this setting: Table 8, one or more cyclic pentapeptide modules versus linear peptides.
The mark [2] stands for this setting: [θ]215 relative to SEQ ID NO: 8, 10 mM phosphate buffer, pH 7.4, 25° C.
Setting [3] is: molar elipticity at 190 nm, 10 mM phosphate buffer, pH 7.4, 25° C.
Where [4] appears, read: 10 mM phosphate buffer, pH 7.4, 25° C.
Setting [5] is: molar elipticity at 215 nm, 10 mM phosphate buffer, pH 7.4, 25° C.
The mark [6] stands for this setting: ratio of elipticities, 10 mM phosphate buffer, pH 7.4, 25° C.
Setting [7] is: cyclic hexapeptides 23-31, 10 mM phosphate buffer pH 7.4 at 25° C.
Setting [8] is: θ215 relative to SEQ ID NO: 24, 10 mM phosphate buffer pH 7.4 at 25° C.

In turn, `CC(=O)N[C@@H](CCCCN)C(=O)N[C@@H](C)C(=O)N[C@@H](CCCNC(=N)N)C(=O)N[C@@H](C)C(=O)N[C@@H](CC(=O)O)C(=O)N[C@@H](CCCCN)C(=O)N[C@@H](C)C(=O)N[C@@H](CCCNC(=N)N)C(=O)N[C@@H](C)C(=O)N[C@@H](CC(=O)O)C(N)=O` [SEQ ID NO: 54] (Ac-KARADKARAD-NH2) registered a θ222/θ208 (Table 8) of 0.21. Besides, under setting [1], the “[θ]192” value was −12237 degcm^2dmol^−1residue^−1, the “[θ]208” value is reported as −8552 degcm^2dmol^−1residue^−1 and the “[θ]222” value is recorded as −1836 degcm^2dmol^−1residue^−1. The “% helicity” value (fH × 100, [θ∞H]222 = −44000, k = 2.6) was 3%.
With “Ac-(cyclo-1,5)-[DARAK]-NH2 (Ac-DARAK-NH2; lactam 1-5; SMILES CC(=O)N[C@H]1CC(=O)NCCCC[C@@H](C(N)=O)NC(=O)[C@H](C)NC(=O)[C@H](CCCNC(=N)N)NC(=O)[C@H](C)NC1=O) [SEQ ID NO: 9]”, the Relative helicity under setting [2] was determined as 0.60. Further, the “[θ]190” value under setting [3] is 15600 deg.cm^2.dmol^−1.residue^−1. The “[θ]207” value under setting [4] is −10705 deg.cm^2.dmol^−1.residue^−1. The “[θ]215” value under setting [5] is on record as −7723 deg.cm^2.dmol^−1.residue^−1. Also, the θ215/θ207 under setting [6] amounted to 0.72.
The matching figures for “Ac-(cyclo-1,5)-[DARAO]-NH2 (Ac-DARA[Orn]-NH2; lactam 1-5; SMILES CC(=O)N[C@H]1CC(=O)NCCC[C@@H](C(N)=O)NC(=O)[C@H](C)NC(=O)[C@H](CCCNC(=N)N)NC(=O)[C@H](C)NC1=O) [SEQ ID NO: 13]”: 0.37, −6954 deg.cm^2.dmol^−1.residue^−1, −9748 deg.cm^2.dmol^−1.residue^−1, −4671 deg.cm^2.dmol^−1.residue^−1 and 0.48.
Taken in the same sequence, the figures for “Ac-(cyclo-1,5)-[EARAK]-NH2 (Ac-EARAK-NH2; lactam 1-5; SMILES CC(=O)N[C@H]1CCC(=O)NCCCC[C@@H](C(N)=O)NC(=O)[C@H](C)NC(=O)[C@H](CCCNC(=N)N)NC(=O)[C@H](C)NC1=O) [SEQ ID NO: 11]” were 0.58, 20735 deg.cm^2.dmol^−1.residue^−1, −12803 deg.cm^2.dmol^−1.residue^−1, −7430 deg.cm^2.dmol^−1.residue^−1 and 0.58.
The matching figures for “Ac-(cyclo-1,5)-[EARAO]-NH2 (Ac-EARA[Orn]-NH2; lactam 1-5; SMILES CC(=O)N[C@H]1CCC(=O)NCCC[C@@H](C(N)=O)NC(=O)[C@H](C)NC(=O)[C@H](CCCNC(=N)N)NC(=O)[C@H](C)NC1=O) [SEQ ID NO: 19]”: 0, −11256 deg.cm^2.dmol^−1.residue^−1, −1917 deg.cm^2.dmol^−1.residue^−1, 2442 deg.cm^2.dmol^−1.residue^−1 and −1.27.
For “Ac-(cyclo-1,5)-[KARAD]-OH (Ac-KARAD-OH; lactam 1-5; SMILES CC(=O)N[C@H]1CCCCNC(=O)C[C@@H](C(=O)O)NC(=O)[C@H](C)NC(=O)[C@H](CCCNC(=N)N)NC(=O)[C@H](C)NC1=O) [SEQ ID NO: 20]”, the Relative helicity reads like this: under setting [2], 0; ([θ]215 relative to SEQ ID NO: 8, in 0.01 M HCl pH 2) 0.06. The “[θ]190” value reads like this: under setting [3], −13953 deg.cm^2.dmol^−1.residue^−1; (molar elipticity at 190 nm, in 0.01 M HCl pH 2) −2659 deg.cm^2.dmol^−1.residue^−1. Moreover, the “[θ]207” value runs as follows: under setting [4], −5643 deg.cm^2.dmol^−1.residue^−1; (in 0.01 M HCl pH 2) −3195 deg.cm^2.dmol^−1.residue^−1. For the same molecule, the “[θ]215” value by setting is: under setting [5], 207 deg.cm^2.dmol^−1.residue^−1; (molar elipticity at 215 nm, in 0.01 M HCl pH 2) −625 deg.cm^2.dmol^−1.residue^−1. For the same molecule, the θ215/θ207 reads like this: under setting [6], −0.04; (ratio of elipticities, in 0.01 M HCl pH 2) 0.20.
Turning to “Ac-(cyclo-1,5)-[KARAE]-NH2 (Ac-KARAE-NH2; lactam 1-5; SMILES CC(=O)N[C@H]1CCCCNC(=O)CC[C@@H](C(N)=O)NC(=O)[C@H](C)NC(=O)[C@H](CCCNC(=N)N)NC(=O)[C@H](C)NC1=O) [SEQ ID NO: 10]”, the Relative helicity under setting [2] was 0.08. For the same molecule, under setting [3], the “[θ]190” value is recorded as −10611 deg.cm^2.dmol^−1.residue^−1. Besides, the “[θ]207” value under setting [4] was −3393 deg.cm^2.dmol^−1.residue^−1. Under setting [5], the “[θ]215” value is on record as −1068 deg.cm^2.dmol^−1.residue^−1. Also, the θ215/θ207 under setting [6] is reported as 0.31.
The matching figures for “Ac-(cyclo-1,5)-[OARAD]-NH2 (Ac-[Orn]ARAD-NH2; lactam 1-5; SMILES CC(=O)N[C@H]1CCCNC(=O)C[C@@H](C(N)=O)NC(=O)[C@H](C)NC(=O)[C@H](CCCNC(=N)N)NC(=O)[C@H](C)NC1=O) [SEQ ID NO: 12]”: 0, −4613 deg.cm^2.dmol^−1.residue^−1, −2077 deg.cm^2.dmol^−1.residue^−1, 92 deg.cm^2.dmol^−1.residue^−1 and −0.04.
The matching figures for “Ac-(cyclo-1,5)-[OARAE]-NH2 (Ac-[Orn]ARAE-NH2; lactam 1-5; SMILES CC(=O)N[C@H]1CCCNC(=O)CC[C@@H](C(N)=O)NC(=O)[C@H](C)NC(=O)[C@H](CCCNC(=N)N)NC(=O)[C@H](C)NC1=O) [SEQ ID NO: 18]”: 0, −16228 deg.cm^2.dmol^−1.residue^−1, −3368 deg.cm^2.dmol^−1.residue^−1, 741 deg.cm^2.dmol^−1.residue^−1 and −0.22.
Turning to “Ac-(cyclo-2,6)-R[KAAAD]-NH2 (Ac-RKAAAD-NH2; lactam 2-6; SMILES CC(=O)N[C@@H](CCCNC(=N)N)C(=O)N[C@H]1CCCCNC(=O)C[C@@H](C(N)=O)NC(=O)[C@H](C)NC(=O)[C@H](C)NC(=O)[C@H](C)NC1=O) [SEQ ID NO: 23]”, the percentage helicities is recorded as 83%. Further, under setting [7], the “Molar ellipticity at 207 nm” value is given as −13684 deg.cm^2.dmol^−1.residue^−1, the “[θ]190” value is 39352 deg.cm^2.dmol^−1.residue^−1, the “[θ]215” value is listed as −13537 deg.cm^2.dmol^−1.residue^−1 and the θ215/θ207 is 0.99. Besides, the “Relative helicity” value under setting [8] is 0.91.
“Ac-(cyclo-2,6)-R[KAFAD]-NH2 (Ac-RKAFAD-NH2; lactam 2-6; SMILES CC(=O)N[C@@H](CCCNC(=N)N)C(=O)N[C@H]1CCCCNC(=O)C[C@@H](C(N)=O)NC(=O)[C@H](C)NC(=O)[C@H](Cc2ccccc2)NC(=O)[C@H](C)NC1=O) [SEQ ID NO: 27]”: the percentage helicities is listed as 53%. Under setting [7], the “Molar ellipticity at 207 nm” value is −9087 deg.cm^2.dmol^−1.residue^−1, the “[θ]190” value is 27718 deg.cm^2.dmol^−1.residue^−1, the “[θ]215” value is recorded as −8644 deg.cm^2.dmol^−1.residue^−1 and the θ215/θ207 is recorded as 0.95. Also, the “Relative helicity” value under setting [8] stood at 0.76.
As to “Ac-(cyclo-2,6)-R[KAGAD]-NH2 (Ac-RKAGAD-NH2; lactam 2-6; SMILES CC(=O)N[C@@H](CCCNC(=N)N)C(=O)N[C@H]1CCCCNC(=O)C[C@@H](C(N)=O)NC(=O)[C@H](C)NC(=O)CNC(=O)[C@H](C)NC1=O) [SEQ ID NO: 28]”, under setting [7], the “Molar ellipticity at 207 nm” value is listed as −7678 deg.cm^2.dmol^−1.residue^−1, the “[θ]190” value was 10036 deg.cm^2.dmol^−1.residue^−1, the “[θ]215” value is reported as −4874 deg.cm^2.dmol^−1.residue^−1 and the θ215/θ207 came out at 0.63. In addition, the “Relative helicity” value under setting [8] is recorded as 0.32.
